The chains are these.
B1: Protein-glutamine gamma-glutamyltransferase 2 (Homo sapiens), P21980 (parent)
chain: MAEELVLERCDLELETNGRDHHTADLCREKLVVRRGQPFWLTLHFEGRNYEASVDSLTFSVVTGPAPSQEAGTKARFPLRDAVEEGDWTATVVDQQDCTLSLQLTTPANAPIGLYRLSLEASTGYQGSSFVLGHFILLFNAWCPADAVYLDSEEERQEYVLTQQGFIYQGSAKFIKNIPWNFGQFEDGILDICLILLDVNPKFLKNAGRDCSRRSSPVYVGRVVSGMVNCNDDQGVLLGRWDNNYGDGVSPMSWIGSVDILRRWKNHGCQRVKYGQCWVFAAVACTVLRCLGIPTRVVTNYNSAHDQNSNLLIEYFRNEFGEIQGDKSEMIWNFHCWVESWMTRPDLQPGYEGWQALDPTPQEKSEGTYCCGPVPVRAIKEGDLSTKYDAPFVFAEVNADVVDWIQQDDGSVHKSINRSLIVGLKISTKSVGRDEREDITHTYKYPEGSSEEREAFTRANHLNKLAEKEETGMAMRIRVGQSMNMGSDFDVFAHITNNTAEEYVCRLLLCARTVSYNGILGPECGTKYLLNLNLEPFSEKSVPLCILYEKYRDCLTESNLIKVRALLVEPVINSYLLAERDLYLENPEIKIRILGEPKQKRKLVAEVSLQNPLPVALEGCTFTVEGAGLTEEQKTVEIPDPVEAGEEVKVRMDLLPLHMGLHKLVVNFESDKLKAVKGFRNVIIGPA

The assay covers variants of B1. The note with it: with KRT19, P08727.
Sequence of KRT19, P08727 (P08727 whole entry): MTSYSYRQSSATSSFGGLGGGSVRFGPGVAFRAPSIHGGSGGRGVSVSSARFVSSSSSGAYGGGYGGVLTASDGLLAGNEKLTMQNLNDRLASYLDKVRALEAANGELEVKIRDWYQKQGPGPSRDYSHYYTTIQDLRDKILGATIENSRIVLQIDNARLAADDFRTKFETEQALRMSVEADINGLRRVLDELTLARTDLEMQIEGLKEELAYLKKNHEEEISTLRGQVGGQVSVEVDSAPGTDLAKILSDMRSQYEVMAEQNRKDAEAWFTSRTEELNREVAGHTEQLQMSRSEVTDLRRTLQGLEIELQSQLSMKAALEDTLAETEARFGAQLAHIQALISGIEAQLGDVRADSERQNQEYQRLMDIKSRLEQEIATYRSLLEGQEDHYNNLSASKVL
In the case of C277V, the “effect of a mutation on the interaction” value is “disrupting interaction”.
